Data published in patent publication US20030119102A1 (Takeda / Millennium, published 2003).

T1: rat 1p (rat, UniProt B9EHT4 181-427 (mouse entry), limits assumed)
T1 construct: Partial-length clone, two-hybrid prey; also called Ip; lp
T1 sequence: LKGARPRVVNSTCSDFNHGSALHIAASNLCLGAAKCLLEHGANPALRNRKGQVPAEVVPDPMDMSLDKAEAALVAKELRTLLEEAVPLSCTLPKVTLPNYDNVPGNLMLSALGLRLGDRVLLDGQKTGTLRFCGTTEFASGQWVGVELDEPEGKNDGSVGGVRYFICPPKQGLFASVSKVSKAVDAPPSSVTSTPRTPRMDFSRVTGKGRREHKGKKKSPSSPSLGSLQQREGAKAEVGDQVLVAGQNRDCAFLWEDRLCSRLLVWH

T2: rat 19r (rat, UniProt P16446 1-271, limits assumed)
T2 construct: also called partial rat 19r; phosphatidylinositol transfer protein alpha
T2 sequence: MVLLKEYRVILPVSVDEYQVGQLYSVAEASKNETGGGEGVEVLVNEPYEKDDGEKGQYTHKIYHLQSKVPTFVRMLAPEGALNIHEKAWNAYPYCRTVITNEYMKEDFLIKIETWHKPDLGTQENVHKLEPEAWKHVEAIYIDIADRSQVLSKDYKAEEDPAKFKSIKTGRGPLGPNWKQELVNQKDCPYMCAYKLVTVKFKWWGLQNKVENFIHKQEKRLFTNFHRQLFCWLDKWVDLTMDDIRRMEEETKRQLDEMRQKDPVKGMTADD

T3: rat Kv4.2 α-subunit (rat, UniProt Q63881 1-630)
T3 construct: whole, on cells; also called rKv4.2
T3 sequence (looked up): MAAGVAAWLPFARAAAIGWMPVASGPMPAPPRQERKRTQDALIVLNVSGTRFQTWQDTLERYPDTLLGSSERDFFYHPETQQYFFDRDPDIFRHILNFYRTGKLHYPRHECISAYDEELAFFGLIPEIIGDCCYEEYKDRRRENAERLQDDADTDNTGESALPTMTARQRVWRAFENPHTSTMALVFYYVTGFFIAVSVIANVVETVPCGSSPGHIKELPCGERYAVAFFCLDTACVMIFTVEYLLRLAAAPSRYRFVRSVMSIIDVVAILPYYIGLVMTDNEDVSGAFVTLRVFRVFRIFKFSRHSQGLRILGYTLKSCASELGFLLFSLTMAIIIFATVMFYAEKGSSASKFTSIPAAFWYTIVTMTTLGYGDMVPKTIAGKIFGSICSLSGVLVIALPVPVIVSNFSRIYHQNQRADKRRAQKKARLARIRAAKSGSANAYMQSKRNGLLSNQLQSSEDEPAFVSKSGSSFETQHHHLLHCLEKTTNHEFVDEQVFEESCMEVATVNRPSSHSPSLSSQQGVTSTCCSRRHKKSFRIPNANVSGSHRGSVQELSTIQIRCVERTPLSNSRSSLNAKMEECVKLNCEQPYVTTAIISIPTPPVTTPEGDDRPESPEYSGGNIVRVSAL

T4: Kv2.1 (rat brain membranes) (rat, UniProt P15387 1-857)
T4 sequence (looked up): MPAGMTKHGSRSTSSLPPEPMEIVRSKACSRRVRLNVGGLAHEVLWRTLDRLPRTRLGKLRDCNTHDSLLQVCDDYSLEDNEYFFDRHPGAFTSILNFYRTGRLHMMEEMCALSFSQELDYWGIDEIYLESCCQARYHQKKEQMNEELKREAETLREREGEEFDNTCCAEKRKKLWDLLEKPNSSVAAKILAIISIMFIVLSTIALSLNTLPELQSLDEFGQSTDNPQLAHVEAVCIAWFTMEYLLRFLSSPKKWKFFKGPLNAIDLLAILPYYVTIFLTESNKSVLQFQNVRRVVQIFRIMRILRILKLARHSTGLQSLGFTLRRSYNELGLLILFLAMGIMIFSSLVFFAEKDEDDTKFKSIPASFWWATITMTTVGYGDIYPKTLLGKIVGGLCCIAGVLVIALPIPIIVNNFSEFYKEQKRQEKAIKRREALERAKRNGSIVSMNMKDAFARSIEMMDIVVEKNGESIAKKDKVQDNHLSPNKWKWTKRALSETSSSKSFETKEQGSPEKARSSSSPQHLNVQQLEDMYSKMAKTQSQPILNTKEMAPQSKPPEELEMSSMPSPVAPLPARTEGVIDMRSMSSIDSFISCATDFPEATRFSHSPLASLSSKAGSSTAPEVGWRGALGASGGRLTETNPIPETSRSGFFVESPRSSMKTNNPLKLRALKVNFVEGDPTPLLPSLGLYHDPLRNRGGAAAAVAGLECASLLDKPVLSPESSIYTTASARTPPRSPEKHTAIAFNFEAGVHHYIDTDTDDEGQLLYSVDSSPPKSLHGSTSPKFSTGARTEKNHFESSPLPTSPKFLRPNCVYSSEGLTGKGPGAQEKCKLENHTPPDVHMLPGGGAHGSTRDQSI

B1: rat 5p (other)
chain: MPSQMEHAMETMMLTFHRFAGEKNYLTKEDLRVLMEREFPGFLENQKDPLAVDKIMKDLDQCRDGKVGFQSFLSLVAGLIIACNDYFVVHMKQKK
notes: Two-hybrid prey; also called Calpactin I light chain; P10
B2: rat 33b07 (other)
chain: MNGVEGNNELPLANTSTSALVPEDLDLKQDQPLSEETDTVREMEAAGEAGAEGGASPDSEHCDPQLCLRVAENGCAAAAGEGLEDGLSSSKCGDAPLASVAANDSNKNGCQLAGPLSPAKPKTLEASGAVGLGSQMMPGPKKTKVMTTKGAISATTGKEGEAGAAMQEKKGVQKEKKAAGGGKDETRPRAPKINNCMDSLEAIDQELSNVNAQADRAFLQLERKFGRMRRLHMQRRSFIIQNIPGFWVTAFRNHPQLSPMISGQDEDMMRYMINLEVEELKHPRAGCKFKFIFQSNPYFRNEGLVKEYERRSSGRVVSLSTPIRWHRGQEPQAHIHRNREGNTIPSFFNWFSDHSLLEFDRIAEIIKGELWSNPLQYYLMGDGPRRGVRVPPRQPVESPRSFRFQSG
notes: also called partial rat 33b07 (clone name 9o)
B3: rKv1.1N (other, rat, UniProt P10499 1-164, looked up)
chain: MTVMSGENADEASAAPGHPQDGSYPRQADHDDHECCERVVINISGLRFETQLKTLAQFPNTLLGNPKKRMRYFDPLRNEYFFDRNRPSFDAILYYYQSGGRLRRPVNVPLDMFSEEIKFYELGEEAMEKFREDEGFIKEEERPLPEKEYQRQVWLLFEYPESSG
notes: Bait of the specificity test; the construct is not described; also called Kv1.1 subunits; rKvl.iN
B4: rat 9qm (other)
chain: MRGQGRKESLSESRDLDGSYDQLTGHPPGPSKKALKQRFLKLLPCCGPQALPSVSENSVEDEFELSTVCHRPEGLEQLQEQTKFTRRELQVLYRGFKNECPSGIVNEENFKQIYSQFFPQGDSSNYATFLFNAFDTNHDGSVSFEDFVAGLSVILRGTIDDRLSWAFNLYDLNKDGCITKEEMLDIMKSIYDMMGKYTYPALREEAPREHVESFFQKMDRNKDGVVTIEEFIESCQQDENIMRSMQLFDNVI
B5: KChIP2 of rat brain membranes (other, UniProt Q9JM59 1-270, looked up)
chain: MRGQGRKESLSESRDLDGSYDQLTGHPPGPSKKALKQRFLKLLPCCGPQALPSVSETLAAPASLRPHRPRPLDPDSVEDEFELSTVCHRPEGLEQLQEQTKFTRRELQVLYRGFKNECPSGIVNEENFKQIYSQFFPQGDSSNYATFLFNAFDTNHDGSVSFEDFVAGLSVILRGTIDDRLSWAFNLYDLNKDGCITKEEMLDIMKSIYDMMGKYTYPALREEAPREHVESFFQKMDRNKDGVVTIEEFIESCQQDENIMRSMQLFDNVI
notes: also called PCIPs (KChIPs 1, 2, and 3)
B6: rat 7q (other)
chain: MAYAYLFKYIIIGDTGVGKSCLLLQFTDKRFQPVHDLTIGVEFGARMITIDGKQIKLQIWDTAGQESFRSITRSYYRGAAGALLVYDITRRDTFNHLTTWLEDARQHSNSNMVIMLIGNKSDLESRREVKKEEGEAFAREHGLIFMETSAKTASNVEEAFINTAKEIYEKIQEGVFDINNEANGIKIGPQHAATNASHGGNQGGQQAGGGCC
notes: Two-hybrid prey; The full length was obtained by RACE PCR; also called RAB2
B7: rat 29x (other)
chain: ARLPAPEHARQQPLLSGPEPGSSARVPVPGVASRRQPRGGKPPSGDGLESGPSPRPLLHARGEAGLHRQSGRVPHTGTAYFADEPTEAQAPGGFCVSPSLLGVRWPACATRTPGSLPLSPPSAQPRTLWPTPPAGPSSRMVARNQVAADNAISPASEPRRRPEPSSSSSSSSPAAPARPRPCPVVPAPAPGDTHFRTFRSHSDYRRITRTSALLDACGFYWGPLSVHGAHERLRAEPVGTFLVRDSRQRNCFFALSVKMASGPTSIRVHFQAGRFHLDGSRETFDCLFELLEHYVAAPRRMLGAPLRQRRVRPLQELCRQRIVAAVGRENLARIPLNPVLRDYLSSFPFQI
notes: Two-hybrid prey; also called SOCS-1; JAB
B8: rat 1v (other)
chain: MPARVLLAYPGTEMLTQGESEGLQTLGIVVVLCSSLKLLHYLGLIDLSDDKIEDDLEMTMVCHRPEGLEQLEAQTNFTKRELQVLYRGFKNECPSGVVNEETFKQIYAQFFPHGDASTYAHYLFNAFDTTQTGSVKFEDFVTALSILLRGTVHEKLRWTFNLYDINKDGYINKEEMMDIVKAIYDMMGKYTYPVLKEDTPRQHVDVFFQKMDKNKDGIVTLDEFLESCQEDDNIMRSLQLFQNVM
notes: also called KChIP1; KchIP1
B9: KChIP3 of rat brain membranes (other, UniProt Q9JM47 1-256, looked up)
chain: MQRTKEAMKASDGSLLGDPGRIPLSKREGIKWQRPRFTRQALMRCCLIKWILSSAAPQGSDSSDSELELSTVRHQPEGLDQLQAQTKFTKKELQSLYRGFKNECPTGLVDEDTFKLIYSQFFPQGDATTYAHFLFNAFDADGNGAIHFEDFVVGLSILLRGTVHEKLKWAFNLYDINKDGYITKEEMLAIMKSIYDMMGRHTYPILREDAPLEHVERFFQKMDRNQDGVVTIDEFLETCQKDENIMSSMQLFENVI
notes: as for B5

Assays:
[1] = target: B3; assay: yeast two-hybrid
[2] = target: T5, rat 7s (rat, UniProt P50516 348-617 (mouse entry), limits assumed); assay: yeast two-hybrid
T5 construct: Partial-length clone, two-hybrid prey; Rat ortholog of the vacuolar H(+)-ATPase catalytic subunit A
T5 sequence (P50516 348-617 limits assumed): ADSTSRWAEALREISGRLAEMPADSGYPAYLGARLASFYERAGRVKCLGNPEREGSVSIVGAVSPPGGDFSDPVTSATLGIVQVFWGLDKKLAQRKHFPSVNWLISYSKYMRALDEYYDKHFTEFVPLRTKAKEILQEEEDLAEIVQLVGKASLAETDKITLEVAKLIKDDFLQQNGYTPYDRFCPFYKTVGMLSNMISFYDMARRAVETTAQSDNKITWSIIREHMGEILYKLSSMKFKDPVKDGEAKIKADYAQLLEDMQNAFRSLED

[3] = target: T1, rat 1p; assay: yeast two-hybrid
[4] = target: T2, rat 19r; assay: yeast two-hybrid
[5] = target: T3, rat Kv4.2 α-subunit; assay: immunoprecipitation from rat brain membranes
[6] = target: T4, Kv2.1 (rat brain membranes); assay: co-immunoprecipitation from rat brain synaptic membranes
[7] = target: T3, rat Kv4.2 α-subunit; assay: cell-based or functional assay

| binding result [1] | binding result [6] | Binder | also measured |
| --- | --- | --- | --- |
| no binding | – | B1 | – |
| no binding | – | B2 | – |
| – | – | B3 | binding result [2]: no binding; binding result [3]: no binding; binding result [4]: no binding |
| – | – | B4 | binding result [5]: binds |
| – | no binding | B5 | – |
| no binding | – | B6 | – |
| no binding | – | B7 | – |
| – | no binding | B8 | Kv4.2 current density in CHO cells, fold increase with coexpression of KChIP1 [7]: 12 fold; amplitude of the Kv4.2 current in CHO cells, fold increase in the presence of KChIP1 [7]: ~7.5 fold |
| – | no binding | B9 | – |
